Assay results as given in US7460961B2, “N-TRADD active site and uses thereof” (Genetics Institute, LLC, priority 2000, dated 2008).

Assay: Solubility and stability of the N-TRADD NMR sample
Format: physicochemical
From the text: Cloning and site directed mutagenesis: The DNA sequence coding for the first 169 amino acids from N-TRADD was cloned in pRSETB (Invitrogen) after amplification by PCR. The primer at the 5′ end introduces an NdeI site upstream from the initiation site, and the primer at the 3′ end introduces a His tag after aa169. The sequence was confirmed by sequencing analysis. Single point mutations were introduced using Chameleon double-stranded site directed mutagenesis (Stratagene). The C-TRAF2 sequence (residues 262 to 501 of human TRAF2) was amplified by PCR using a 5′ end primer flanking with an XhoI and NdeI site, which introduces a Met before residue 262, and a 3′ end primer introducing 6×His before a stop codon followed by a NcoI site. The C-TRAF2 sequence was cloned into pAcSG2 (Pharmingen) by XhoI and NcoI sites for baculovirus expression. Protein expression and purification: The polypeptide for N-TRADD (1-169) was overexpressed in BL-21 E. coli. [U-^15N] or [U-^13C, U-^15N]. N-TRADD was purified from cells grown at 25° C. on minimal medium containing 2 g/L […] or [^15N]ammonium sulfate and 2 g/L [U-^13C]glucose. […]
Structure Determination: The structure of N-TRADD was determined from 2302 NMR derived restraints obtained using uniformly ^15N and ^15N/^13C labeled protein, with double and triple resonance NMR experiments. […]

B1: N-TRADD: N-terminal domain (amino acid residues 1-169, SEQ ID NO:1) of human TNFR-1 associated death domain protein (protein)
chain: MAAGQNGHEWVGSAYLFVESSLDKVVLSDAYAHPQQKVAVYRALQAALAESGGSPDVLQMLKIHRSDPQLIVQLRFCGRQPCGRFLRAYREGALRAALQRSLAAALAQHSVPLQLELRAGAERLDALLADEERCLSCILAQQPDRLRDEELAELEDALRNLKCGSGAR
solubility (dithiothreitol (20 mM) required to prevent aggregation): ~1000 µM | sample stability (~1 mM, 20 mM dithiothreitol): 6-8 weeks
